3 molecules from PMC9767379, “Homologous chromosomes are stably conjoined for Drosophila male meiosis I by SUM, a multimerized protein assembly with modules for DNA-binding and for separase-mediated dissociation co-opted from cohesin” (PLOS Genetics, 2022) can be followed below.

Broadly, the stoichiometry N is a count of units in the complex or per binding partner.

“And” between values parts separate entries of the source, which are not always exact repeats. Identical values can stand only once.

For one series, the target named is T1, Strep-II-UNO_C (D. melanogaster, UniProt Q7JQU5 281-417).
T1 construct: source: Hi5 insect cells, baculovirus, co-expressed with MBP-SNM; purified (Strep-Tactin, SEC); not shown: twin Strep-II, N-terminal, kept
T1 sequence (looked up): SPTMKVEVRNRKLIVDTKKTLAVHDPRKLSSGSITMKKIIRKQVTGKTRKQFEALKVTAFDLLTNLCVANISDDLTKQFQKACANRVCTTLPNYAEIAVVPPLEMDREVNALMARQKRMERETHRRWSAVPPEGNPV
The experiment in a line: SEC-MALS + other: mass photometry; purified SU_C complex; SEC-MALS in 50 mM HEPES pH 7.5, 1 mM TCEP, 300 mM NaCl, 5–10 μM; mass photometry in 30 mM HEPES pH 7.8, 150 mM NaCl, 3 μM diluted 1:100. The conditions noted are these: both partners purified. For orientation: Size exclusion chromatography separates by hydrodynamic size, large species first.

Series [1] deals with the molecule itself. In words: SEC-MALS; purified protein alone, 50 μL at 5–10 μM, 50 mM HEPES pH 7.5, 1 mM TCEP, 300 mM NaCl.

B1: MBP-SNM (natural protein, D. melanogaster, UniProt Q9W0F4 1-973, looked up)
chain: MSDISFDDAVLNDSQASNQMDFEIREECSIAPNDEPVCVDGTVGDATNKSLLQMILSRKRLSPTNKRNSHIESVAKYWGEFYLDSPTAALVALLQFVVEVSGSHYQIPDDTSMPFSYSDILSNSSSHFSNTHIYPLIRKPADVFVNQVGSFLNALLLVANKFRSDSYQLFLVQLTNFVMACSESNIRTFRHTATMIGLKIMTILSDLKSLDDEIAMTVWMQMFNSMFVARSRDIVTDIRLLCISELGQWFARYPHCHLQPTSLRIFYEALNDGSGDVIQCSLDNISVLCRKDVLFSEIVALTSEFREILVELCLGKEDAIAEKSVQFLTHFHVLSAEILTDDVCRVLEQLIMAANRGLAQAAADLFILRRNGLDGETFCQRVKHLLQLFIECGHEQADYLVDSLIDNCELVLDWKSMIAVLLENPKSRELSDIHCSSLIAILLAGVKQATAGEIPPGRYTKDLKREPRQGAQERATKCLAPVLPELLRTYANRLQDIERLLELPKYFCFDYYHEQNRMGQLNELVEHFELIIFDQTSSTTVLQITVKTLEFLNRMIPIPLTKQLLNSAVTNYKMAWHRTQDTSPSRSTHNESNRLLATLRLLTVLSGHFNLSKWDLTEPLLFSLKMLLRQRRLPNGDDLPPEAFSLYLKACFCCLCWDMENLEGTALNNVDMDEYCDVLHHNLEDYLYVTFSLVGKSNTEPLAYPCFSYTCDLFVLHGNLCGSSNPSIRSVAHVPSGNELDILEGFLMEHFLELSPSDLMLETNSDQLQRIRSILTSYLKVVCLGVVPTMRASKFYEYYVKYHAPFGDVMRCSMELALQRNPIHFAMTMLHTCLLLYAKVFPDDTRHAAGQRALRPAEFSELMELANRLAKILISNPMEHRECVIALHRSGILFVFELAQKQPTEATKKLPFLRVLKVFVPLLLVQDKTRILNFFEPYEQLIIPTCNRNDIAHLKEYRNALRPRKTKSYPQAT
notes: SNM (stromalin in meiosis; SA-2), D. melanogaster; source: purified (Strep-Tactin, SEC); not shown: MBP, N-terminal, kept
Take B1: in the series with Strep-II-UNO_C, the “stoichiometry N” value is 1.

B2: Mod(mdg4)_CP (purified) (domain or fragment)
chain: MADDEQFSLCWNNFNTNLSAGFHESLCRGDLVDVSLAAEGQIVKAHRLVLSVCSPFFRKMFTQMPSNTHAIVFLNNVSHSALKDLIQFMYCGEVNVKQDALPAFISTAESLQIKGLTDND
Consider B2, for which, in series [1], the “stoichiometry N” value was found to be 6.

B3: MBP-UNO_N (domain or fragment, D. melanogaster, UniProt Q7JQU5 1-73, looked up)
chain: MPALTHQILTMQRAPPLNLSFKIQLLSGQNVILVECSGYESELFLPQIVGERITMQNVIQDRRCCAESMLLRD
notes: UNO, D. melanogaster, N-terminal domain aa 1-73; found as a tetramer (SEC peak 1) and as a dimer (SEC peak 2); source: E. coli BL21, purified (amylose/MBP Trap, ion exchange, SEC); not shown: His6, N-terminal, kept; MBP, N-terminal, kept
For the molecule B3, the “stoichiometry N” value in series [1] is 4 and 2.
